In US20200164038A1, “MODIFIED NUCLEOSIDE, NUCLEOTIDE, AND NUCLEIC ACID COMPOSITIONS” (ModernaTX, Inc., priority 2011, published 2020):

B1: G-CSF Gen 2: G-CSF mRNA SEQ ID NO 6, Cap1, fully modified with 5-methylcytosine and N1-methylpseudouridine (nucleic acid, listed as Homo sapiens)
chain: GGGAAAUAAGAGAGAAAAGAAGAGUAAGAAGAAAUAUAAGAGCCACCAUGGCCGGUCCCGCGACCCAAAGCCCCAUGAAACUUAUGGCCCUGCAGUUGCUGCUUUGGCACUCGGCCCUCUGGACAGUCCAAGAAGCGACUCCUCUCGGACCUGCCUCAUCGUUGCCGCAGUCAUUCCUUUUGAAGUGUCUGGAGCAGGUGCGAAAGAUUCAGGGCGAUGGAGCCGCACUCCAAGAGAAGCUCUGCGCGACAUACAAACUUUGCCAUCCCGAGGAGCUCGUACUGCUCGGGCACAGCUUGGGGAUUCCCUGGGCUCCUCUCUCGUCCUGUCCGUCGCAGGCUUUGCAGUUGGCAGGGUGCCUUUCCCAGCUCCACUCCGGUUUGUUCUUGUAUCAGGGACUGCUGCAAGCCCUUGAGGGAAUCUCGCCAGAAUUGGGCCCGACGCUGGACACGUUGCAGCUCGACGUGGCGGAUUUCGCAACAACCAUCUGGCAGCAGAUGGAGGAACUGGGGAUGGCACCCGCGCUGCAGCCCACGCAGGGGGCAAUGCCGGCCUUUGCGUCCGCGUUUCAGCGCAGGGCGGGUGGAGUCCUCGUAGCGAGCCACCUUCAAUCAUUUUUGGAAGUCUCGUACCGGGUGCUGAGACAUCUUGCGCAGCCGUGAAGCGCUGCCUUCUGCGGGGCUUGCCUUCUGGCCAUGCCCUUCUUCUCUCCCUUGCACCUGUACCUCUUGGUCUUUGAAUAAAGCCUGAGUAGGAAG
modifications: Cap1; 5-methylcytosine, N1-methylpseudouridine
B2: G-CSF Gen 1: G-CSF mRNA SEQ ID NO 6, Cap1, fully modified with 5-methylcytosine and pseudouridine (nucleic acid, listed as Homo sapiens)
chain: B1 chain
modifications: Cap1; 5-methylcytosine, pseudouridine

Assays:
[1] = system: Human primary foreskin fibroblasts (BJ fibroblasts); assay: Innate immune response in BJ fibroblasts, repeat transfection (IFN-beta, IL-6); format: cell-based; conditions: daily transfection, Day 1
Female BALB/C mice = assay: In vivo detection of innate immune response: human G-CSF and mouse IFN-alpha in serum; conditions: Protein: Cytokine Ratio
Description: Blood is collected at 8 hours after dosing and using ELISA the protein levels of G-CSF and interferon-alpha (IFN-alpha) is determined by ELISA and are shown in Table 81.

[2] = Stability of modified RNA on storage (gel electrophoresis); format: physicochemical
Description: Stability experiments were conducted to obtain a better understanding of storage conditions to retain the integrity of modified RNA. […] 40° C. 37° C. 25° C. 4° C. or −20° C. After the mRNA had been stored for 0 hours, 2 hours, 6 hours, 24 hours, 48 hours, 5 days and 14 days, the mRNA was analyzed by gel electrophoresis using a Bio-Rad EXPERION™ system. The modified, unmodified and lipoplexed G-CSF mRNA was also stored in RNASTABLE® (Biomatrica, Inc. San Diego, Calif.) at 40° C. or water at −80° C. or 40° C. for 35 days before being analyzed by gel electrophoresis.
mRNA samples stored at 4° C. 25° C. and 37° C. were stored in 1×TE buffer or the formulation buffer (150 mM sodium chloride, 2 mM calcium chloride, 2 mM phosphate, 0.5 mM EDTA at a pH of 6.5). The mRNA stored at 4° C. was stable to at least 60 days in both the TE and formulation buffer. At 25° C. the mRNA in formulation buffer was stable out to 14 days and the TE buffer was stable out to at least 6 days. Storage of mRNA in the formulation buffer at 37° C. was stable to 6 days compared to the TE buffer which was stable only until 4 days.

mice = assay: Saline formulation: human protein in mouse serum 13 hours after injection; format: in vivo; conditions: G-CSF group, 100 ug
Description: The mice were bled at 13 hours after the injection to determine the concentration of the human polypeptide in serum in pg/mL. (G-CSF groups measured human G-CSF in mouse serum and EPO groups measured human EPO in mouse serum).

| Molecule | IFNbeta [1] [pg/mL] | PC Ratio (Female BALB/C mice) | stable out to ([2]; stored at 25° C., with or without lipoplex) [h] | stable out to ([2]; stored at 37° C.) [h] | stable out to ([2]; stored at 50° C.) [h] | Average Protein Product, human G-CSF (mice) |
| --- | --- | --- | --- | --- | --- | --- |
| B1 | 3 | 748 | – | – | – | – |
| B2 | – | – | 120 | 24 | 6 | 45 pg/mL, serum |
